From patent publication US20250320281A1

Columns and labels:
Assay in all cases: cell-based or functional assay
[1] = biological target: HIV-1 92RW020 Env (HIV-1)
[2] = biological target: HIV-1 93IN905 Env (HIV-1)
[3] = biological target: HIV-1 94UG103 Env (HIV-1)
HIV-1 APV13 Env (HIV-1) = biological target: HIV-1 APV13 Env (HIV-1)
HIV-1 CMU02 Env (HIV-1) = biological target: HIV-1 CMU02 Env (HIV-1)
HIV-1 JRFL Env (HIV-1) = biological target: HIV-1 JRFL Env (HIV-1)
HIV-1 NL43 Env (HIV-1) = biological target: HIV-1 NL43 Env (HIV-1)
aMLV envelope (aMLV) = biological target: aMLV envelope (aMLV)
[4] = biological target: HIV-1 Env of isolate 92BR020 (pseudovirus) (HIV-1)
[5] = biological target: HIV-1 MGRM-A-010 envelope glycoprotein (Env) on pseudovirus (HIV-1 isolate MGRM-A-010 (clade A))
[6] = biological target: HIV-1 MGRM-C-027 envelope glycoprotein (Env) on pseudovirus (HIV-1 isolate MGRM-C-027 (clade C))
[7] = biological target: HIV-1 MGRM-D-018 envelope glycoprotein (Env) on pseudovirus (HIV-1 isolate MGRM-D-018 (clade D))
[8] = biological target: HIV-1 Env of isolate MG RM-D-026 (HIV-1)
[9] = biological target: HIV-1 Env of isolate MG RM-D-028 (HIV-1)
[10] = biological target: HIV-1 Env of pseudovirus MGRM-AG-001 (subtype AG) (HIV-1)
[11] = biological target: HIV-1 Env of pseudovirus MGRM-AG-002 (subtype AG) (HIV-1)
[12] = biological target: HIV-1 Env of pseudovirus MGRM-AG-006 (subtype AG) (HIV-1)
[13] = biological target: HIV-1 Env of pseudovirus MGRM-AG-011 (subtype AG) (HIV-1)
[14] = biological target: HIV-1 Env of isolate APV13 (HIV-1)
[15] = biological target: HIV-1 Env of isolate JRFL (HIV-1)
[16] = biological target: HIV-1 Env of isolate MG RM-D-001 (clade D), on pseudovirus (HIV-1)
[17] = biological target: HIV-1 Env of isolate MG RM-D-029 (clade D), on pseudovirus (HIV-1)
[18] = biological target: HIV-1 Env of isolate MGRM-Chronic-B-003 (HIV-1)
[19] = biological target: HIV-1 Env of isolate MGRM-Chronic-B-020 (HIV-1)
[20] = biological target: HIV-1 Env of pseudovirus MGRM-A-001 (subtype A) (HIV-1)
[21] = biological target: HIV-1 Env of isolate AC10 (clade B pseudovirus) (HIV-1)
[22] = biological target: HIV-1 Env of isolate DU156 (clade C pseudovirus) (HIV-1)
[23] = biological target: HIV-1 Env of isolate REJ04541 (clade B pseudovirus) (HIV-1)
[24] = biological target: HIV-1 Env of isolate TR0.11 (clade B pseudovirus) (HIV-1)
[25] = biological target: MuLV envelope protein (control pseudovirus) (MuLV)
[26] = biological target: HIV-1 92BR020 Env (pseudovirus) (HIV-1 isolate 92BR020 (clade B))
[27] = biological target: HIV-1 92RW020 Env (pseudovirus) (HIV-1 isolate 92RW020 (clade A))
[28] = biological target: HIV-1 92UG005 Env (pseudovirus) (HIV-1 isolate 92UG005 (clade D))
[29] = biological target: HIV-1 APV17 Env (pseudovirus) (HIV-1 isolate APV17 (clade B))
[30] = biological target: HIV-1 MGRM-C-028 Env (pseudovirus) (HIV-1 isolate MGRM-C-028 (clade C))
[31] = biological target: aMLV envelope (control pseudovirus) (aMLV)

1443_C16 (PG16) (TCN-116) (antibody), sequence (VH): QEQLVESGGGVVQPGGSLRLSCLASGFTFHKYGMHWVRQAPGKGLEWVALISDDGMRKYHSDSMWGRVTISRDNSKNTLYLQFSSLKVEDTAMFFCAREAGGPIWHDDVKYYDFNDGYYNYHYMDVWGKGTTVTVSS
1443_C16 (PG16) (TCN-116) (antibody), sequence (VL): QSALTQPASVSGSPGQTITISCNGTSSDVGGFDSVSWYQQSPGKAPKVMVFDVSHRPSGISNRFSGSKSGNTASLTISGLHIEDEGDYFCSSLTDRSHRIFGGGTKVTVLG

4877_D15 (PGT-122) (antibody)
Neutralization by PGT-122, IC50 [1]: 7.2 ng/mL
Neutralization by PGT-122, IC80 [1]: 0.0407 µg/mL
Neutralization by PGT-122, IC90 [1]: 0.113 µg/mL
Neutralization by PGT-122, IC95 [1]: 0.289 µg/mL
Neutralization by PGT-122, IC50 [2]: 0.0138 µg/mL
Neutralization by PGT-122, IC80 [2]: 0.0505 µg/mL
Neutralization by PGT-122, IC90 [2]: 0.108 µg/mL
Neutralization by PGT-122, IC95 [2]: 0.217 µg/mL
Neutralization by PGT-122, IC50 [3]: 1.46 µg/mL
Neutralization by PGT-122, IC80 [3]: 6.58 µg/mL
Neutralization by PGT-122, IC90 [3]: > 10 µg/mL
Neutralization by PGT-122, IC95 [3]: > 10 µg/mL
Neutralization by PGT-122, IC50 (HIV-1 APV13 Env (HIV-1)): 0.992 µg/mL
Neutralization by PGT-122, IC80 (HIV-1 APV13 Env (HIV-1)): 4.14 µg/mL
Neutralization by PGT-122, IC90 (HIV-1 APV13 Env (HIV-1)): 8.6 µg/mL
Neutralization by PGT-122, IC95 (HIV-1 APV13 Env (HIV-1)): > 10 µg/mL
Neutralization by PGT-122, IC50 (HIV-1 CMU02 Env (HIV-1)): > 10 µg/mL
Neutralization by PGT-122, IC80 (HIV-1 CMU02 Env (HIV-1)): > 10 µg/mL
Neutralization by PGT-122, IC90 (HIV-1 CMU02 Env (HIV-1)): > 10 µg/mL
Neutralization by PGT-122, IC95 (HIV-1 CMU02 Env (HIV-1)): > 10 µg/mL
Neutralization by PGT-122, IC50 (HIV-1 JRFL Env (HIV-1)): 0.0471 µg/mL
Neutralization by PGT-122, IC80 (HIV-1 JRFL Env (HIV-1)): 0.166 µg/mL
Neutralization by PGT-122, IC90 (HIV-1 JRFL Env (HIV-1)): 0.342 µg/mL
Neutralization by PGT-122, IC95 (HIV-1 JRFL Env (HIV-1)): 0.659 µg/mL
Neutralization by PGT-122, IC50 (HIV-1 NL43 Env (HIV-1)): > 10 µg/mL
Neutralization by PGT-122, IC80 (HIV-1 NL43 Env (HIV-1)): > 10 µg/mL
Neutralization by PGT-122, IC90 (HIV-1 NL43 Env (HIV-1)): > 10 µg/mL
Neutralization by PGT-122, IC95 (HIV-1 NL43 Env (HIV-1)): > 10 µg/mL
Neutralization by PGT-122, IC50 (aMLV envelope (aMLV)): > 10 µg/mL
Neutralization by PGT-122, IC80 (aMLV envelope (aMLV)): > 10 µg/mL
Neutralization by PGT-122, IC90 (aMLV envelope (aMLV)): > 10 µg/mL
Neutralization by PGT-122, IC95 (aMLV envelope (aMLV)): > 10 µg/mL

4858_P08 (PGT-123) (antibody)
Primary Neutralization Index (B cell culture supernatant) [4]: 2.8

1496_C09 (PG9) (TCN-109) (antibody)
neutralization IC50 [5]: 0.0375 µg/mL
neutralization IC80 [5]: 0.121 µg/mL
neutralization IC90 [5]: 0.242 µg/mL
neutralization IC95 [5]: 0.456 µg/mL
neutralization IC50 [6]: 2.45 µg/mL
neutralization IC50 [7]: 0.0444 µg/mL
neutralization IC80 [7]: 0.18 µg/mL
neutralization IC90 [7]: 0.43 µg/mL
neutralization IC95 [7]: 1.05 µg/mL

VRC01 (antibody)
IC50 [8]: 0.435 µg/mL
IC50 [9]: 0.377 µg/mL
IC50, pseudovirus neutralization [10]: 0.228 µg/mL
IC50, pseudovirus neutralization [11]: 0.95 µg/mL
IC50, pseudovirus neutralization [12]: 0.344 µg/mL
IC50, pseudovirus neutralization [13]: 0.084 µg/mL

PGV04 (antibody)
IC50 (µg/mL), pseudovirus neutralization [14]: 1.23 µg/mL
IC50 (µg/mL), pseudovirus neutralization [15]: 0.032 µg/mL
IC50 (µg/mL), pseudovirus neutralization [16]: > 50 µg/mL
IC50 (µg/mL), pseudovirus neutralization [17]: 1.56 µg/mL
IC50 (µg/mL), pseudovirus neutralization [18]: 0.258 µg/mL
IC50 (µg/mL), pseudovirus neutralization [19]: 1.26 µg/mL
IC50, pseudovirus neutralization [20]: 6.78 µg/mL

1443_C16 (PG16) (TCN-116) (antibody)
IC50 (neutralization, TZM-bl pseudovirus assay) [21]: < 0.01 µg/mL
IC50 (neutralization, TZM-bl pseudovirus assay) [22]: < 0.01 µg/mL
IC50 (neutralization, TZM-bl pseudovirus assay) [23]: < 0.01 µg/mL
IC50 (neutralization, TZM-bl pseudovirus assay) [24]: 3.61 µg/mL
IC50 (neutralization, TZM-bl pseudovirus assay) [25]: > 25 µg/mL

5123_A06 (PGT-125) (antibody)
Neutralization by PGT-125, IC50 [26]: 0.0214 µg/mL
Neutralization by PGT-125, IC80 [26]: 0.0738 µg/mL
Neutralization by PGT-125, IC90 [26]: 0.156 µg/mL
Neutralization by PGT-125, IC95 [26]: 0.323 µg/mL
Neutralization by PGT-125, IC50 [27]: 2.8 ng/mL
Neutralization by PGT-125, IC80 [27]: 0.011 µg/mL
Neutralization by PGT-125, IC90 [27]: 0.0248 µg/mL
Neutralization by PGT-125, IC95 [27]: 0.0526 µg/mL
Neutralization by PGT-125, IC50 [28]: > 10 µg/mL
Neutralization by PGT-125, IC80 [28]: > 10 µg/mL
Neutralization by PGT-125, IC90 [28]: > 10 µg/mL
Neutralization by PGT-125, IC95 [28]: > 10 µg/mL
Neutralization by PGT-125, IC50 [29]: 7.31 µg/mL
Neutralization by PGT-125, IC80 [29]: > 10 µg/mL
Neutralization by PGT-125, IC90 [29]: > 10 µg/mL
Neutralization by PGT-125, IC95 [29]: > 10 µg/mL
Neutralization by PGT-125, IC50 [30]: 5.78 µg/mL
Neutralization by PGT-125, IC80 [30]: > 10 µg/mL
Neutralization by PGT-125, IC90 [30]: > 10 µg/mL
Neutralization by PGT-125, IC95 [30]: > 10 µg/mL
Neutralization by PGT-125, IC50 [31]: > 10 µg/mL
Neutralization by PGT-125, IC80 [31]: > 10 µg/mL
Neutralization by PGT-125, IC90 [31]: > 10 µg/mL
Neutralization by PGT-125, IC95 [31]: > 10 µg/mL
